# Experimental data from the Human Domainome abundance scans (Beltran et al. 2025).
# ± gives the uncertainty stated by the source.
# B1: Arginine-glutamic acid dipeptide repeats protein, residues 502 to 543; numbered along this chain, Q9P2R6 (parent)
# chain: LKGYACRHCFTTTSKDWHHGGRENILLCTDCRIHFKKYGELP
# Variants of: B1
# Assay: abundance fitness (aPCA) (normalised: wild type 0, dead -1); higher = more abundant; growth selection in yeast, the domain comes from the species named
# Settings: Homo sapiens
row,Variant,abundance fitness
1,LKGYACRHCFTTTSKDWHHGGREYILLCTDCRIHFKKYGELP [N24Y],-0.249 ± 0.067
2,LKGYACRHCFTTTSKDWHHGGRENALLCTDCRIHFKKYGELP [I25A],-0.122 ± 0.035
3,LKGYACRHCFTTTSKDWHHGGRENCLLCTDCRIHFKKYGELP [I25C],-0.258 ± 0.065
4,LKGYACRHCFTTTSKDWHHGGRENDLLCTDCRIHFKKYGELP [I25D],-0.16 ± 0.059
5,LKGYACRHCFTTTSKDWHHGGRENELLCTDCRIHFKKYGELP [I25E],-0.048 ± 0.036
6,LKGYACRHCFTTTSKDWHHGGRENFLLCTDCRIHFKKYGELP [I25F],-0.213 ± 0.082
7,LKGYACRHCFTTTSKDWHHGGRENGLLCTDCRIHFKKYGELP [I25G],-0.264 ± 0.039
8,LKGYACRHCFTTTSKDWHHGGRENHLLCTDCRIHFKKYGELP [I25H],-0.169 ± 0.044
9,LKGYACRHCFTTTSKDWHHGGRENLLLCTDCRIHFKKYGELP [I25L],-0.05 ± 0.036
10,LKGYACRHCFTTTSKDWHHGGRENMLLCTDCRIHFKKYGELP [I25M],-0.15 ± 0.049
11,LKGYACRHCFTTTSKDWHHGGRENNLLCTDCRIHFKKYGELP [I25N],-0.298 ± 0.061
12,LKGYACRHCFTTTSKDWHHGGRENPLLCTDCRIHFKKYGELP [I25P],-0.141 ± 0.066
13,LKGYACRHCFTTTSKDWHHGGRENQLLCTDCRIHFKKYGELP [I25Q],-0.099 ± 0.047
14,LKGYACRHCFTTTSKDWHHGGRENSLLCTDCRIHFKKYGELP [I25S],-0.185 ± 0.043
15,LKGYACRHCFTTTSKDWHHGGRENTLLCTDCRIHFKKYGELP [I25T],-0.04 ± 0.083
16,LKGYACRHCFTTTSKDWHHGGRENVLLCTDCRIHFKKYGELP [I25V],-0.015 ± 0.038
17,LKGYACRHCFTTTSKDWHHGGRENWLLCTDCRIHFKKYGELP [I25W],-0.073 ± 0.034
18,LKGYACRHCFTTTSKDWHHGGRENYLLCTDCRIHFKKYGELP [I25Y],-0.187 ± 0.11
19,LKGYACRHCFTTTSKDWHHGGRENIALCTDCRIHFKKYGELP [L26A],-0.311 ± 0.036
20,LKGYACRHCFTTTSKDWHHGGRENIDLCTDCRIHFKKYGELP [L26D],-0.244 ± 0.057

row,Variant,abundance fitness
1,LKGYACRHCFTTTSKDWHHGGRENIELCTDCRIHFKKYGELP [L26E],-0.167 ± 0.054
2,LKGYACRHCFTTTSKDWHHGGRENIFLCTDCRIHFKKYGELP [L26F],-0.354 ± 0.11
3,LKGYACRHCFTTTSKDWHHGGRENIGLCTDCRIHFKKYGELP [L26G],-0.307 ± 0.04
4,LKGYACRHCFTTTSKDWHHGGRENIHLCTDCRIHFKKYGELP [L26H],-0.386 ± 0.31
5,LKGYACRHCFTTTSKDWHHGGRENIILCTDCRIHFKKYGELP [L26I],0.004 ± 0.4
6,LKGYACRHCFTTTSKDWHHGGRENIKLCTDCRIHFKKYGELP [L26K],-0.268 ± 0.062
7,LKGYACRHCFTTTSKDWHHGGRENIMLCTDCRIHFKKYGELP [L26M],0.023 ± 0.076
8,LKGYACRHCFTTTSKDWHHGGRENIPLCTDCRIHFKKYGELP [L26P],-0.21 ± 0.063
9,LKGYACRHCFTTTSKDWHHGGRENIQLCTDCRIHFKKYGELP [L26Q],-0.376 ± 0.05
10,LKGYACRHCFTTTSKDWHHGGRENIRLCTDCRIHFKKYGELP [L26R],-0.2 ± 0.038
11,LKGYACRHCFTTTSKDWHHGGRENISLCTDCRIHFKKYGELP [L26S],-0.36 ± 0.046
12,LKGYACRHCFTTTSKDWHHGGRENITLCTDCRIHFKKYGELP [L26T],-0.05 ± 0.062
13,LKGYACRHCFTTTSKDWHHGGRENIVLCTDCRIHFKKYGELP [L26V],-0.18 ± 0.038
14,LKGYACRHCFTTTSKDWHHGGRENIWLCTDCRIHFKKYGELP [L26W],-0.188 ± 0.038
15,LKGYACRHCFTTTSKDWHHGGRENIYLCTDCRIHFKKYGELP [L26Y],-0.403 ± 0.11
16,LKGYACRHCFTTTSKDWHHGGRENILACTDCRIHFKKYGELP [L27A],-0.405 ± 0.036
17,LKGYACRHCFTTTSKDWHHGGRENILCCTDCRIHFKKYGELP [L27C],-0.217 ± 0.086
18,LKGYACRHCFTTTSKDWHHGGRENILDCTDCRIHFKKYGELP [L27D],-0.541 ± 0.081
19,LKGYACRHCFTTTSKDWHHGGRENILECTDCRIHFKKYGELP [L27E],-0.318 ± 0.044
20,LKGYACRHCFTTTSKDWHHGGRENILFCTDCRIHFKKYGELP [L27F],-0.444 ± 0.07

row,Variant,abundance fitness
1,LKGYACRHCFTTTSKDWHHGGRENILGCTDCRIHFKKYGELP [L27G],-0.494 ± 0.039
2,LKGYACRHCFTTTSKDWHHGGRENILHCTDCRIHFKKYGELP [L27H],-0.086 ± 0.15
3,LKGYACRHCFTTTSKDWHHGGRENILICTDCRIHFKKYGELP [L27I],-0.172 ± 0.058
4,LKGYACRHCFTTTSKDWHHGGRENILKCTDCRIHFKKYGELP [L27K],-0.511 ± 0.045
5,LKGYACRHCFTTTSKDWHHGGRENILMCTDCRIHFKKYGELP [L27M],-0.209 ± 0.044
6,LKGYACRHCFTTTSKDWHHGGRENILPCTDCRIHFKKYGELP [L27P],-0.396 ± 0.059
7,LKGYACRHCFTTTSKDWHHGGRENILQCTDCRIHFKKYGELP [L27Q],-0.498 ± 0.069
8,LKGYACRHCFTTTSKDWHHGGRENILRCTDCRIHFKKYGELP [L27R],-0.554 ± 0.035
9,LKGYACRHCFTTTSKDWHHGGRENILTCTDCRIHFKKYGELP [L27T],-0.294 ± 0.059
10,LKGYACRHCFTTTSKDWHHGGRENILVCTDCRIHFKKYGELP [L27V],-0.276 ± 0.034
11,LKGYACRHCFTTTSKDWHHGGRENILWCTDCRIHFKKYGELP [L27W],-0.259 ± 0.035
12,LKGYACRHCFTTTSKDWHHGGRENILYCTDCRIHFKKYGELP [L27Y],-0.301 ± 0.099
13,LKGYACRHCFTTTSKDWHHGGRENILLATDCRIHFKKYGELP [C28A],-0.873 ± 0.052
14,LKGYACRHCFTTTSKDWHHGGRENILLETDCRIHFKKYGELP [C28E],-0.685 ± 0.058
15,LKGYACRHCFTTTSKDWHHGGRENILLFTDCRIHFKKYGELP [C28F],-0.789 ± 0.17
16,LKGYACRHCFTTTSKDWHHGGRENILLGTDCRIHFKKYGELP [C28G],-0.798 ± 0.046
17,LKGYACRHCFTTTSKDWHHGGRENILLHTDCRIHFKKYGELP [C28H],-0.872 ± 0.18
18,LKGYACRHCFTTTSKDWHHGGRENILLKTDCRIHFKKYGELP [C28K],-0.841 ± 0.11
19,LKGYACRHCFTTTSKDWHHGGRENILLLTDCRIHFKKYGELP [C28L],-1.13 ± 0.11
20,LKGYACRHCFTTTSKDWHHGGRENILLMTDCRIHFKKYGELP [C28M],-1.31 ± 0.17
